We go through four substances from article PMC10130748.

Assay [1] has as its target CD62P lectin domain R16E/K17E mutant.
The target of assay [2] is CD62P (P-selectin) lectin domain (residues 1–117), wild type. The experiment in a line: ELISA; wells coated with the CD62P lectin domain (WT, mutants, or lectin+EGF; 50 μg/ml where stated), blocked with BSA; soluble αvβ3 or αIIbβ3 (1 μg/ml) in HEPES-Tyrodes buffer with 1 mM MnCl2, 1 h, room temperature; bound integrin detected with anti-β3 mAb AV-10 and HRP anti-mouse IgG. For orientation: ELISA stands for enzyme-linked immunosorbent assay.
Chain of CD62P (P-selectin) lectin domain (residues 1–117), wild type (P16109 42-158): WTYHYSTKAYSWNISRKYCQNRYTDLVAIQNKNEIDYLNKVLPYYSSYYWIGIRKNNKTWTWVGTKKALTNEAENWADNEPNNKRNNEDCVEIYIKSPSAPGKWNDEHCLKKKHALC

Chain of CD62P lectin domain R16E/K17E mutant (P16109 42-158 R57E/K58E): as the sequence (P16109 42-158) above, with R16E, K17E counted along it
Chain of integrin αvβ3 on β3-CHO cells (P05106 whole entry, looked up): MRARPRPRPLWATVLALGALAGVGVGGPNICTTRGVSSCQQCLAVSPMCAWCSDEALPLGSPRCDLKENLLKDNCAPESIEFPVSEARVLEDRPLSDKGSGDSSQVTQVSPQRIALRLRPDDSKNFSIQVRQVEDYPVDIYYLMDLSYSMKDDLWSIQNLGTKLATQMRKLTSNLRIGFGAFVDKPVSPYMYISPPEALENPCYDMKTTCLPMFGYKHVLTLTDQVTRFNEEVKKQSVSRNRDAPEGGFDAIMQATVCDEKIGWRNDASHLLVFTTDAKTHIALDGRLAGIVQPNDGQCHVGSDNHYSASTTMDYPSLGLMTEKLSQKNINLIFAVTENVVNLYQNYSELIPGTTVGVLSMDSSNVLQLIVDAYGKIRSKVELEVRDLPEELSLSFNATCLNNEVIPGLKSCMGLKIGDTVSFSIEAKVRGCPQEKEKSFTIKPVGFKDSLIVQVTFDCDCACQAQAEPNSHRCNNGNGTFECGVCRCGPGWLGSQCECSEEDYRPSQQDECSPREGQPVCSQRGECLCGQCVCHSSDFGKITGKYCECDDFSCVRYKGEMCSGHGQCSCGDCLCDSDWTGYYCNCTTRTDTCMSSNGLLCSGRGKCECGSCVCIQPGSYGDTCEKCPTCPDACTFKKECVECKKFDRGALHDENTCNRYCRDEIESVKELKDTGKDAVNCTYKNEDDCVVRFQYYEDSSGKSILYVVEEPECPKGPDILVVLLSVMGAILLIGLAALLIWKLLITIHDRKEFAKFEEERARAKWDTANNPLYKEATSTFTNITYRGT

In the case of “integrin α5β1 on parent CHO cells (receptor)”, the static adhesion of parent CHO cells to wells coated with the R16E/K17E lectin domain (50 μg/ml), Mg2+ buffer in assay [1] was found to be 60 % reduced.
Take “integrin αvβ3 on β3-CHO cells (from UniProt P05106 27-788) (receptor)”: in assay [1], the static adhesion of β3-CHO cells to wells coated with the R16E/K17E lectin domain (50 μg/ml), Mg2+ buffer stood at 60 % reduced.
For “soluble recombinant integrin αIIbβ3 (from UniProt P08514 32-1039; P05106 27-718) (receptor)”, the fold binding relative to the combined lectin and EGF-like domains in assay [2] was 2 fold.
Consider “soluble recombinant integrin αvβ3 (from UniProt P06756 31-1048; P05106 27-718) (receptor)”, for which the fold binding relative to the combined lectin and EGF-like domains in assay [2] came out at 2 fold.
